From patent US12679878B2, “CRF2 receptor agonists and their use in therapy” (SANOFI, priority 2020, dated 2026)
Starred links: 1 amine or outer side, 2 acyl side, 3 side chain; linkers in the order of their positions; H or OH if unused. Non-standard residues stand in square brackets, D forms with d. Groups on a side chain read outwards from the residue. No end group written: not given here. *: point of attachment. C16 diacid = O=C(O)CCCCCCCCCCCCCCC(=O)*; γGlu = O=C(O)[C@H](CCC(=O)[*:2])N[*:1]; Aib = CC(C)(N)C(=O)O

T1: CRF1R receptor (anti-target) (UniProt P34998 24-415, limits assumed)
T1 sequence (looked up): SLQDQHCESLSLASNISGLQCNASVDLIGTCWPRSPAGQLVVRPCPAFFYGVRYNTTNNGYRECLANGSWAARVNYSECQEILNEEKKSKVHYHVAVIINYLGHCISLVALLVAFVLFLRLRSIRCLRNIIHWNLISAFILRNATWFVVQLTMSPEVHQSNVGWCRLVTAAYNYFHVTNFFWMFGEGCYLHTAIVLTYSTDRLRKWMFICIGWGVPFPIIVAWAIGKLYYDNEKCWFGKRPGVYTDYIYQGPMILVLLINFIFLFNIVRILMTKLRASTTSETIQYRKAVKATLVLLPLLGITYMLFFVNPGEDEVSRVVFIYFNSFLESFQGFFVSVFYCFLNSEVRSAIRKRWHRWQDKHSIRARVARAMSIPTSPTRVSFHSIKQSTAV

T2: CRF1R receptor (anti-target) (UniProt P34998 24-415, limits assumed)
T2 sequence (looked up): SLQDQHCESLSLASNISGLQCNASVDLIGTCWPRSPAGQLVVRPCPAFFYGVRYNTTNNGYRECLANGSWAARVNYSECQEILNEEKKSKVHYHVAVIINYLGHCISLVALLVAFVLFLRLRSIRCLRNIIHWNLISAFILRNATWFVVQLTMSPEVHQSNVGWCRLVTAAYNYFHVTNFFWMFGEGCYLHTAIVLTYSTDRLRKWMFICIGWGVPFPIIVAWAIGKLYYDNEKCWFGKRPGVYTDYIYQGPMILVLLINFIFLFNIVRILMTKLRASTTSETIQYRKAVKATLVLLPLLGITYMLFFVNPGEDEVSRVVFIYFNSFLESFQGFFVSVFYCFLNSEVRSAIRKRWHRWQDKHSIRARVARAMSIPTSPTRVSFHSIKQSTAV


Key:
Assay in all cases: cell-based or functional assay
[1] = molecular target: T1, CRF1R receptor (anti-target)
[2] = molecular target: human corticotropin-releasing factor 2α (CRF2α receptor) (human), Q13324
Chain of human corticotropin-releasing factor 2α (CRF2α receptor) (human), Q13324 (Q13324 20-411): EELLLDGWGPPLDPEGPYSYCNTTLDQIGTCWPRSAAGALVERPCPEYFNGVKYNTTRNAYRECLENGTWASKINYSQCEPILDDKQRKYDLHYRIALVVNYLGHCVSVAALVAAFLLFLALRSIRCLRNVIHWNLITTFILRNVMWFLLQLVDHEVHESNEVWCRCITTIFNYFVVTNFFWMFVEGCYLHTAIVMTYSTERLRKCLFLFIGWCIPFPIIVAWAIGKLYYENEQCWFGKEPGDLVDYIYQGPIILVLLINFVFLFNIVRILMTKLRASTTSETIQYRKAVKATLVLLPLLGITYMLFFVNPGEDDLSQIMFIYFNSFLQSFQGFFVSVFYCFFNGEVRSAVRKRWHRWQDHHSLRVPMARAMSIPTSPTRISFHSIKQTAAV

[3] = molecular target: T2, CRF1R receptor (anti-target); remark: listed apart in the source

Binder	EC50 [nM] 0% HSA (cAMP, HTRF) [1] [nM]	Emax (%) (100% = Sauvagine at 100 nM) [1]	EC50 [nM], 0% HSA (cAMP, HTRF) [2] [nM]	CRF1/CRF2 ratio (of EC50) [3]	CRF1 EC50 (cAMP, HTRF) [3] [nM]
IVLSLD[dV]PTKLK([γGlu-C16 diacid])QKLLKQERQRKEREQAEKNVRILERV-NH2 (N-terminus assumed; SMILES CC[C@H](C)[C@H](N)C(=O)N[C@H](C(=O)N[C@@H](CC(C)C)C(=O)N[C@@H](CO)C(=O)N[C@@H](CC(C)C)C(=O)N[C@@H](CC(=O)O)C(=O)N[C@@H](C(=O)N1CCC[C@H]1C(=O)N[C@H](C(=O)N[C@@H](CCCCN)C(=O)N[C@@H](CC(C)C)C(=O)N[C@@H](CCCCNC(=O)CC[C@H](NC(=O)CCCCCCCCCCCCCCC(=O)O)C(=O)O)C(=O)N[C@@H](CCC(N)=O)C(=O)N[C@@H](CCCCN)C(=O)N[C@@H](CC(C)C)C(=O)N[C@@H](CC(C)C)C(=O)N[C@@H](CCCCN)C(=O)N[C@@H](CCC(N)=O)C(=O)N[C@@H](CCC(=O)O)C(=O)N[C@@H](CCCNC(=N)N)C(=O)N[C@@H](CCC(N)=O)C(=O)N[C@@H](CCCNC(=N)N)C(=O)N[C@@H](CCCCN)C(=O)N[C@@H](CCC(=O)O)C(=O)N[C@@H](CCCNC(=N)N)C(=O)N[C@@H](CCC(=O)O)C(=O)N[C@@H](CCC(N)=O)C(=O)N[C@@H](C)C(=O)N[C@@H](CCC(=O)O)C(=O)N[C@@H](CCCCN)C(=O)N[C@@H](CC(N)=O)C(=O)N[C@H](C(=O)N[C@@H](CCCNC(=N)N)C(=O)N[C@H](C(=O)N[C@@H](CC(C)C)C(=O)N[C@@H](CCC(=O)O)C(=O)N[C@@H](CCCNC(=N)N)C(=O)N[C@H](C(N)=O)C(C)C)[C@@H](C)CC)C(C)C)[C@@H](C)O)C(C)C)C(C)C) [peptide of SEQ ID NO: 222]	> 100	6.2	7.38		
IVLSLD[dV]PIKLK([γGlu-C16 diacid])QILLKQERQKKQREQAEKNKQILEQV-NH2 (N-terminus assumed; SMILES CC[C@H](C)[C@H](N)C(=O)N[C@H](C(=O)N[C@@H](CC(C)C)C(=O)N[C@@H](CO)C(=O)N[C@@H](CC(C)C)C(=O)N[C@@H](CC(=O)O)C(=O)N[C@@H](C(=O)N1CCC[C@H]1C(=O)N[C@H](C(=O)N[C@@H](CCCCN)C(=O)N[C@@H](CC(C)C)C(=O)N[C@@H](CCCCNC(=O)CC[C@H](NC(=O)CCCCCCCCCCCCCCC(=O)O)C(=O)O)C(=O)N[C@@H](CCC(N)=O)C(=O)N[C@H](C(=O)N[C@@H](CC(C)C)C(=O)N[C@@H](CC(C)C)C(=O)N[C@@H](CCCCN)C(=O)N[C@@H](CCC(N)=O)C(=O)N[C@@H](CCC(=O)O)C(=O)N[C@@H](CCCNC(=N)N)C(=O)N[C@@H](CCC(N)=O)C(=O)N[C@@H](CCCCN)C(=O)N[C@@H](CCCCN)C(=O)N[C@@H](CCC(N)=O)C(=O)N[C@@H](CCCNC(=N)N)C(=O)N[C@@H](CCC(=O)O)C(=O)N[C@@H](CCC(N)=O)C(=O)N[C@@H](C)C(=O)N[C@@H](CCC(=O)O)C(=O)N[C@@H](CCCCN)C(=O)N[C@@H](CC(N)=O)C(=O)N[C@@H](CCCCN)C(=O)N[C@@H](CCC(N)=O)C(=O)N[C@H](C(=O)N[C@@H](CC(C)C)C(=O)N[C@@H](CCC(=O)O)C(=O)N[C@@H](CCC(N)=O)C(=O)N[C@H](C(N)=O)C(C)C)[C@@H](C)CC)[C@@H](C)CC)[C@@H](C)CC)C(C)C)C(C)C) [peptide of SEQ ID NO: 190]				> 500	> 100
IVLSLD[dV]PIKLK([γGlu-C16 diacid])QILLKQARQK[Aib]QRAQAEKNKRILERV-NH2 (N-terminus assumed; SMILES CC[C@H](C)[C@H](N)C(=O)N[C@H](C(=O)N[C@@H](CC(C)C)C(=O)N[C@@H](CO)C(=O)N[C@@H](CC(C)C)C(=O)N[C@@H](CC(=O)O)C(=O)N[C@@H](C(=O)N1CCC[C@H]1C(=O)N[C@H](C(=O)N[C@@H](CCCCN)C(=O)N[C@@H](CC(C)C)C(=O)N[C@@H](CCCCNC(=O)CC[C@H](NC(=O)CCCCCCCCCCCCCCC(=O)O)C(=O)O)C(=O)N[C@@H](CCC(N)=O)C(=O)N[C@H](C(=O)N[C@@H](CC(C)C)C(=O)N[C@@H](CC(C)C)C(=O)N[C@@H](CCCCN)C(=O)N[C@@H](CCC(N)=O)C(=O)N[C@@H](C)C(=O)N[C@@H](CCCNC(=N)N)C(=O)N[C@@H](CCC(N)=O)C(=O)N[C@@H](CCCCN)C(=O)NC(C)(C)C(=O)N[C@@H](CCC(N)=O)C(=O)N[C@@H](CCCNC(=N)N)C(=O)N[C@@H](C)C(=O)N[C@@H](CCC(N)=O)C(=O)N[C@@H](C)C(=O)N[C@@H](CCC(=O)O)C(=O)N[C@@H](CCCCN)C(=O)N[C@@H](CC(N)=O)C(=O)N[C@@H](CCCCN)C(=O)N[C@@H](CCCNC(=N)N)C(=O)N[C@H](C(=O)N[C@@H](CC(C)C)C(=O)N[C@@H](CCC(=O)O)C(=O)N[C@@H](CCCNC(=N)N)C(=O)N[C@H](C(N)=O)C(C)C)[C@@H](C)CC)[C@@H](C)CC)[C@@H](C)CC)C(C)C)C(C)C) [peptide of SEQ ID NO: 197]				> 500	> 100
IVLSLD[dV]PTKLK([γGlu-C16 diacid])QKLLKQERQRKEREQAEKNARILARV-NH2 (N-terminus assumed; SMILES CC[C@H](C)[C@H](N)C(=O)N[C@H](C(=O)N[C@@H](CC(C)C)C(=O)N[C@@H](CO)C(=O)N[C@@H](CC(C)C)C(=O)N[C@@H](CC(=O)O)C(=O)N[C@@H](C(=O)N1CCC[C@H]1C(=O)N[C@H](C(=O)N[C@@H](CCCCN)C(=O)N[C@@H](CC(C)C)C(=O)N[C@@H](CCCCNC(=O)CC[C@H](NC(=O)CCCCCCCCCCCCCCC(=O)O)C(=O)O)C(=O)N[C@@H](CCC(N)=O)C(=O)N[C@@H](CCCCN)C(=O)N[C@@H](CC(C)C)C(=O)N[C@@H](CC(C)C)C(=O)N[C@@H](CCCCN)C(=O)N[C@@H](CCC(N)=O)C(=O)N[C@@H](CCC(=O)O)C(=O)N[C@@H](CCCNC(=N)N)C(=O)N[C@@H](CCC(N)=O)C(=O)N[C@@H](CCCNC(=N)N)C(=O)N[C@@H](CCCCN)C(=O)N[C@@H](CCC(=O)O)C(=O)N[C@@H](CCCNC(=N)N)C(=O)N[C@@H](CCC(=O)O)C(=O)N[C@@H](CCC(N)=O)C(=O)N[C@@H](C)C(=O)N[C@@H](CCC(=O)O)C(=O)N[C@@H](CCCCN)C(=O)N[C@@H](CC(N)=O)C(=O)N[C@@H](C)C(=O)N[C@@H](CCCNC(=N)N)C(=O)N[C@H](C(=O)N[C@@H](CC(C)C)C(=O)N[C@@H](C)C(=O)N[C@@H](CCCNC(=N)N)C(=O)N[C@H](C(N)=O)C(C)C)[C@@H](C)CC)[C@@H](C)O)C(C)C)C(C)C) [peptide of SEQ ID NO: 221]	> 100	3.2	2.71		
